Data from publication PMC11765556, “Cytosine Methylation Changes the Preferred Cis-Regulatory Configuration of Arabidopsis WUSCHEL-Related Homeobox 14”.

T1: AtWOX14 (homodimer on DNA) (Arabidopsis thaliana, UniProt Q9LM84 1-211)
T1 sequence: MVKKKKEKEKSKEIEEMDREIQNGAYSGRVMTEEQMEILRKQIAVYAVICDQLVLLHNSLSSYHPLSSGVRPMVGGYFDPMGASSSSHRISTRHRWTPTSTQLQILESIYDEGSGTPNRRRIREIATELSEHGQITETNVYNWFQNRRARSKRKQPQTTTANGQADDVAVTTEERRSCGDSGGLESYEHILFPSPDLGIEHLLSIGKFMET

T2: AtWOX14 (monomer) (Arabidopsis thaliana, UniProt Q9LM84 1-211)
T2 sequence: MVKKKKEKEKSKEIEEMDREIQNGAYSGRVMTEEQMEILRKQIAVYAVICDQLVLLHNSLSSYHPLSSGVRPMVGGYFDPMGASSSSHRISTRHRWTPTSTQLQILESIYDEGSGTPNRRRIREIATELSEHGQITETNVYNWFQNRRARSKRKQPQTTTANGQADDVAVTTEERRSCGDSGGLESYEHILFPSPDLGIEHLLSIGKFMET


Columns and labels:
[1] = target: T1, AtWOX14 (homodimer on DNA); experiment: EMSA; 25-200 nM WOX14; dimeric shift; EMSA: 10 mM Tris (pH not stated), 50 mM NaCl, 1 mM MgCl2, 4% glycerol, 0.5 mM EDTA, 25 C 40 min, 30 ng probe in 20 uL; 6% native PAGE, 0.5x TBE, 4 C; conditions: protein: recombinant; tags: N-terminal His (pETG20A-His); chain copies: 2
AtWOX14 (monomer) = target: T2, AtWOX14 (monomer); experiment: EMSA; 50-200 nM WOX14; monomeric shift; EMSA: 10 mM Tris (pH not stated), 50 mM NaCl, 1 mM MgCl2, 4% glycerol, 0.5 mM EDTA, 25 C 40 min, 30 ng probe in 20 uL; 6% native PAGE, 0.5x TBE, 4 C; conditions: protein: recombinant; tags: N-terminal His (pETG20A-His)
[2] = target: T1, AtWOX14 (homodimer on DNA); experiment: EMSA; 50-200 nM WOX14; dimeric shift at high protein; EMSA: 10 mM Tris (pH not stated), 50 mM NaCl, 1 mM MgCl2, 4% glycerol, 0.5 mM EDTA, 25 C 40 min, 30 ng probe in 20 uL; 6% native PAGE, 0.5x TBE, 4 C; conditions: protein: recombinant; tags: N-terminal His (pETG20A-His); chain copies: 2

Binder	binding result [1]	binding result (AtWOX14 (monomer))	binding result [2]
ER0-AT1G15640 (dsDNA) DNA 1: AATAAGATGTACCCAATGATTGCAATGATGAGCCCAATGAGTGC DNA 2: GCACTCATTGGGCTCATCATTGCAATCATTGGGTACATCTTATT	binds	–	–
M1 (dsDNA) DNA 1: ATGCTAGCTCCATCTGTATTGATTGTTTATGGCGGTGACGTACT DNA 2: AGTACGTCACCGCCATAAACAATCAATACAGATGGAGCTAGCAT	–	binds	–
ER0 (dsDNA) DNA 1: ATGCTAGCTCCATCTGTGATTGCAATCAATGGCGGTGACGTACT DNA 2: AGTACGTCACCGCCATTGATTGCAATCACAGATGGAGCTAGCAT	–	binds	binds
ER1 (dsDNA) DNA 1: ATGCTAGCTCCATCTGTGATTGACAATCAATGGCGGTGACGTACT DNA 2: AGTACGTCACCGCCATTGATTGTCAATCACAGATGGAGCTAGCAT	–	binds	binds
